For series [1], the target named is T1, Lsm2-8fSNAP (unlabeled) (Saccharomyces cerevisiae, UniProt P38203;P57743;P40070;P40089;Q06406;P53905;P47093 …).
T1 sequence 1: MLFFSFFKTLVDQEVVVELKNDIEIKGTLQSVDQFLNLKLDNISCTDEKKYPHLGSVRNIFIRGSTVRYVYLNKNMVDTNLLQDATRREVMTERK
T1 sequence 2: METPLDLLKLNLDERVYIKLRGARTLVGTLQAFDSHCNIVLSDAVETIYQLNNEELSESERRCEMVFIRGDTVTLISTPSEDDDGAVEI
T1 sequence 3: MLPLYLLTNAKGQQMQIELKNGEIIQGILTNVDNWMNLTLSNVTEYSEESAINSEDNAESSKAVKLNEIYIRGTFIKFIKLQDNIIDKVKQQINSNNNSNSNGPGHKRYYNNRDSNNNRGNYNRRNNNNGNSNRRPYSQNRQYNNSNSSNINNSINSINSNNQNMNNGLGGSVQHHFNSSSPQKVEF
T1 sequence 4: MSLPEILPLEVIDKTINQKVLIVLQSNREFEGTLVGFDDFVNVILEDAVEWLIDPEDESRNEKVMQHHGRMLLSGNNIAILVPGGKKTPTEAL
T1 sequence 5: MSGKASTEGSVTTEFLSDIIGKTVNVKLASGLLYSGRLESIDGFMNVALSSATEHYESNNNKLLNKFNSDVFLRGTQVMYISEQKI
T1 sequence 6: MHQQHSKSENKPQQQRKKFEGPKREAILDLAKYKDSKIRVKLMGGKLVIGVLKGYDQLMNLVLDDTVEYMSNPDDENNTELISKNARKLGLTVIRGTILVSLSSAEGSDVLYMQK
T1 sequence 7: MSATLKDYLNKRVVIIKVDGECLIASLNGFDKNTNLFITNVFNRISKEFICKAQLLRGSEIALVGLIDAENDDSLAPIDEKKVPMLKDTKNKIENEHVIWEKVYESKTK
As to the kind of experiment: fluorescence polarization; Hill 1.12; FP: 2x RNA stock 2 nM mixed 1:1 with protein, 100 mM NaCl, 20 mM Bis-Tris pH 7.0, 10 mM HCl, 1 mM TCEP, 5% glycerol, yeast tRNA, BSA. EMSA: 100 mM KCl, 20% sucrose, 20 mM Hepes pH 7, 1 mM EDTA, 1 mM TCEP, 0.01% Triton X-100 (RNA buffer), yeast tRNA, heparin, BSA, 30 min room temperature, 6% native PAGE at 4 C. CoSMoS buffer not in material. The note with it: protein: recombinant; tags: fast SNAP tag at C terminus of Lsm8 via flexible linker; His-tag removed with TEV; copies: 1;1;1;1;1;1;1; label: fluorophore.

Series [2] concerns the target T2, Lsm2-8 heteroheptamer WT (Saccharomyces cerevisiae, UniProt P38203;P57743;P40070;P40089;Q06406;P53905;P47093 …).
T2 sequence 1: T1 sequence 1
T2 sequence 2: T1 sequence 2
T2 sequence 3: T1 sequence 3
T2 sequence 4: T1 sequence 4
T2 sequence 5: T1 sequence 5
T2 sequence 6: T1 sequence 6
T2 sequence 7: T1 sequence 7
Description: fluorescence polarization; Hill 1.18; FP: 2x RNA stock 2 nM mixed 1:1 with protein, 100 mM NaCl, 20 mM Bis-Tris pH 7.0, 10 mM HCl, 1 mM TCEP, 5% glycerol, yeast tRNA, BSA. EMSA: 100 mM KCl, 20% sucrose, 20 mM Hepes pH 7, 1 mM EDTA, 1 mM TCEP, 0.01% Triton X-100 (RNA buffer), yeast tRNA, heparin, BSA, 30 min room temperature, 6% native PAGE at 4 C. CoSMoS buffer not in material. The note with it: protein: recombinant; tags: His-tag removed with TEV; copies: 1;1;1;1;1;1;1; label: fluorophore. For orientation: In fluorescence polarisation assays a small probe gives low polarisation when free and higher when bound to something large.

The target in series [3] is T2, Lsm2-8 heteroheptamer WT. Description: fluorescence polarization; Hill 1.11; FP: 2x RNA stock 2 nM mixed 1:1 with protein, 100 mM NaCl, 20 mM Bis-Tris pH 7.0, 10 mM HCl, 1 mM TCEP, 5% glycerol, yeast tRNA, BSA. EMSA: 100 mM KCl, 20% sucrose, 20 mM Hepes pH 7, 1 mM EDTA, 1 mM TCEP, 0.01% Triton X-100 (RNA buffer), yeast tRNA, heparin, BSA, 30 min room temperature, 6% native PAGE at 4 C. CoSMoS buffer not in material. As to conditions: protein: recombinant; tags: His-tag removed with TEV; copies: 1;1;1;1;1;1;1; label: fluorophore.

In series [4] the target is T1, Lsm2-8fSNAP (unlabeled). Description: fluorescence polarization; Hill 0.88; FP: 2x RNA stock 2 nM mixed 1:1 with protein, 100 mM NaCl, 20 mM Bis-Tris pH 7.0, 10 mM HCl, 1 mM TCEP, 5% glycerol, yeast tRNA, BSA. EMSA: 100 mM KCl, 20% sucrose, 20 mM Hepes pH 7, 1 mM EDTA, 1 mM TCEP, 0.01% Triton X-100 (RNA buffer), yeast tRNA, heparin, BSA, 30 min room temperature, 6% native PAGE at 4 C. CoSMoS buffer not in material. The note with it: protein: recombinant; tags: fast SNAP tag at C terminus of Lsm8 via flexible linker; His-tag removed with TEV; copies: 1;1;1;1;1;1;1; label: fluorophore.

Series [5] has as its target T2, Lsm2-8 heteroheptamer WT. As to the kind of experiment: fluorescence polarization; Hill 1.26; FP: 2x RNA stock 2 nM mixed 1:1 with protein, 100 mM NaCl, 20 mM Bis-Tris pH 7.0, 10 mM HCl, 1 mM TCEP, 5% glycerol, yeast tRNA, BSA. EMSA: 100 mM KCl, 20% sucrose, 20 mM Hepes pH 7, 1 mM EDTA, 1 mM TCEP, 0.01% Triton X-100 (RNA buffer), yeast tRNA, heparin, BSA, 30 min room temperature, 6% native PAGE at 4 C. CoSMoS buffer not in material. As to conditions: protein: recombinant; tags: His-tag removed with TEV; copies: 1;1;1;1;1;1;1; label: fluorophore.

Series [6] has as its target T1, Lsm2-8fSNAP (unlabeled). As to the kind of experiment: fluorescence polarization; Hill 1.35; FP: 2x RNA stock 2 nM mixed 1:1 with protein, 100 mM NaCl, 20 mM Bis-Tris pH 7.0, 10 mM HCl, 1 mM TCEP, 5% glycerol, yeast tRNA, BSA. EMSA: 100 mM KCl, 20% sucrose, 20 mM Hepes pH 7, 1 mM EDTA, 1 mM TCEP, 0.01% Triton X-100 (RNA buffer), yeast tRNA, heparin, BSA, 30 min room temperature, 6% native PAGE at 4 C. CoSMoS buffer not in material. As to conditions: protein: recombinant; tags: fast SNAP tag at C terminus of Lsm8 via flexible linker; His-tag removed with TEV; copies: 1;1;1;1;1;1;1; label: fluorophore.

Broadly, the Kd is the concentration at which binding is half-saturated.

For AGAGAUUUAUUUCGUUUUU (ssRNA, 3' cis-diol (2',3'-OH)) [U6 95-113-OH], the Kd in the series with Lsm2-8fSNAP (unlabeled) [1] worked out at 6.7 ± 1.1 nM; with Lsm2-8 heteroheptamer WT [2], 6.75 ± 1.15 nM.

Turning to AGAGAUUUAUUUCGUUUU (ssRNA, 3' phosphate) [U6 95-112-P], the results for the Kd in the series with Lsm2-8 heteroheptamer WT [3] and with Lsm2-8fSNAP (unlabeled) [4] were 10.3 ± 4.1 nM and 12.8 ± 3.87 nM, respectively.

On to AGAGAUUUAUUUCGUUUU (ssRNA, 3' cis-diol (2',3'-OH)) [U6 95-112-OH], for which the Kd turned out to be 84.6 ± 16.8 nM with Lsm2-8 heteroheptamer WT [5] and 114 ± 16.8 nM with Lsm2-8fSNAP (unlabeled) [6].

For the origin of these results see paper PMC12136795, “RNA modifications and Prp24 coordinate Lsm2–8 binding dynamics during S. cerevisiae U6 snRNP assembly”.
